How the values were obtained:
[1] = target: human ACE2 with a C-terminal FLAG tag, on transduced HeLa cells (human) (UniProt Q9BYF1); experiment: flow cytometry on cells
[2] = target: mink ACE2 with a C-terminal FLAG tag, on transduced HeLa cells (mink (Neovison vison)); experiment: flow cytometry on cells

WT S1 domain of SARS-CoV-2 spike C-terminally fused with a His tag (domain or fragment)
percent of ACE2-expressing cells positive for S1-Fc [1]: 86.5%
percent of ACE2-expressing cells positive for S1-Fc [2]: 1.2%
